Laboratory results taken from patent publication US20210292393A1 (published 2021).
Substitutions are numbered along the chain they refer to.

What was measured:
[1] = target: SARS-CoV-2 full length spike protein, V483A mutant (SARS-CoV-2, UniProt P0DTC2 14-1273)
[2] = target: SARS-CoV-2 full length spike protein, V483A mutant, expressed on CHO cells (SARS-CoV-2, UniProt P0DTC2 14-1273)

B1: antibody 295 (antibody, V domains shown)
VH: QVQLQESGPGLVKPSQTLSLTCTVSGGSISSSDYYWSWIRQPPGKGLEWIGYIYYSGSTYYNPSLKSRVTISVDTSKNQFSLKLSSVTAADTAVYYCARVVGYCSSTSCYVDYWGQGTLVTVSS
VL: EIVLTQSPATLSLSPGERVTLSCRASQSVSSYLAWYQQKPGQAPRLLIYDASNRATGIPARFSGSGSGTDFTLTISSLEPEDFAVYYCQQRSNWPPGLTFGGGTKVEIK
For B1, the “median fluorescence intensity, fold over isotype control” value (“median fluorescence intensity, fold” for short) [1] was 9.93 fold over isotype.

B2: antibody 492 (antibody, V domains shown)
VH: QVQLVESGGGVVQPGRSLRLSCAASGFTFSSYGMHWVRQAPGKGLEWVAVISYDGSNKYYADSVKGRFTISRDNSKNTLYLQMNSLRAEDTAVYYCAKDGILWWWWGYFDYWGQGTLVTVSS
VL: QSVLTQPPSVSGAPGQRVTISCTGSSSNIGAGFDVHWYQQLPGTAPKLLIYGNSNRPSGVPDRFSGSKSGTSASLAITGLQAEDEADYYCQSYDSSLSVVFGGGTKLTVL
B2 was tested, and the “median fluorescence intensity, fold” value [2] was 7.71 fold over isotype.

B3: antibody 276 (antibody, V domains shown)
VH: QVQLQESGPGLVKPSQTLSLTCTVSGDSISSGGYYWSWIRQHPGKGLEWIGYIYYSGSAYYNPSLKSRVTISLDTSKNQFSLKLSSVTAADTAVYYCARDSVAGFSIFDYWGQGTLVTVSS
VL: SSELTQDPAVSVALGQTVRITCQGDSLRSYYASWYQQKPGQAPVRVIYGKNNRPSGIPDRFSGSSSGNTASLTITGAQAEDEADYYCNSWDSSGNHVVFGGGTKLTVL
B3 was tested, and the “median fluorescence intensity, fold” value [1] was 11.1 fold over isotype.

B4: antibody 294 (antibody, V domains shown)
VH: EVQLVESGGGLVQPGGSLRLSCAASGFTVSSNYMNWVRQAPGKGLEWVSVIYSGGSTYYADSVKGRFTISRDNSKNTLYLQMNSLRAEDTAVYYCARDLGPSGMDVWGQGTTVTVSS
VL: DIQMTQSPSSVSASVGDRVTITCRASQGISSWLAWYQQKPGKAPKLLIYAASSLQSGVPSRFSGSGSGTDFTLTISSLQPEDFATYYCQQANSFPLFGGGTKVEIK
With B4 the “median fluorescence intensity, fold” value [1] was 18.4 fold over isotype.

B5: antibody 301 (antibody, V domains shown)
VH: QVQLVQSGAEVKKPGASVKVSCKVSGYTLTELSMHWVRQAPGKGLEWMGGFDPEDGETIYAQKFQGRVTMTEDTSTDTAYMELSSLRSEDTAVYYCATAFCGGDCYPPDALDIWGQGTMVTVSS
VL: DIQMTQSPSSVSASVGDRVTITCRASQGISSWLAWYQQKPGKAPKLLIYAASSLQSGVPSRFSGSGSGTDFTLTISSLQPEDFATYYCQQANSFPLTFGGGTKVEIK
With B5 the “median fluorescence intensity, fold” value [1] was 21.3 fold over isotype.

B6: antibody 497 (antibody, V domains shown)
VH: QVQLQESGPGLVKPSQTLSLTCTVSGGSINSFGYYWSWIRQHPGKGLEWIGYIYYSGSTDYNPSLNSRVTISLDTSKNQFLLKLTSVTAADTAVYYCAKLTDYYDSSGYSFDYWGQGTLVTVSS
VL: B5 VL with G28D, S31R, S65R, D70E, F71L, Y87F, N92Y, L96F
For B6, the “median fluorescence intensity, fold” value [2] was 22.2 fold over isotype.

B7: antibody 504 (antibody, V domains shown)
VH: QVQLVESGGGVVQPGRSLRLSCAASGFTFSSYGMHWVRQAPGKGLEWVAVISYDGSNKYYADSVKGRFTISRDNSKNTLYLQMNSLRAEDTAVYYCAKGGGGGYCSGGSCYSHYFDYWGQGTLVTVSS
VL: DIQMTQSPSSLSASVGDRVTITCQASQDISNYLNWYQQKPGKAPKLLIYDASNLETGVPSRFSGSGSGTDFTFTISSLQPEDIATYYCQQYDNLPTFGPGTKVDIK
With B7 the “median fluorescence intensity, fold” value [2] was 2.47 fold over isotype.

B8: antibody 300 (antibody, V domains shown)
VH: QVQLVESGGGVVQPGRSLTLSCAASGFTFSSYAMHWVRQAPGKGLEWVALISYDGNNKYYADSVKGRFTFSRDNSKNTLYLQMNSLRAEDTAVYYCARTNSGSYRTAFDYWGQGTLVTVSS
VL: DIQMTQSPSTLSASVGDRVTITCRASQSISIWLAWYQQKPGKAPKLLIYKASSLESGVPSRFSGSGSGTEFTLTISSLQPDDFATYYCQQYNSLWTFGQGTKVEIK
With B8 the “median fluorescence intensity, fold” value [1] was 10.2 fold over isotype.

B9: antibody 480 (antibody, V domains shown)
VH: B8 VH with T19R, L50V, F70I, A97V, R105Y, T106A
VL: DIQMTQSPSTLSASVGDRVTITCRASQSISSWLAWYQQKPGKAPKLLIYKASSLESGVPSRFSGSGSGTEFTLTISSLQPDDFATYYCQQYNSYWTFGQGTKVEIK
With B9 the “median fluorescence intensity, fold” value [2] was 10.7 fold over isotype.

B10: antibody 288 (antibody, V domains shown)
VH: EVQLVESGGGLVQPGGSLRLSCAASGFTFSSYDMHWVRQATGKGLEWVSAIGTAGDTYYPGSVKGRFTISRENAKNSLYLQMNSLRAGDTAVYYCARGANRDYDILTGYYSYYYYGMDVWGQGTTVTVSS
VL: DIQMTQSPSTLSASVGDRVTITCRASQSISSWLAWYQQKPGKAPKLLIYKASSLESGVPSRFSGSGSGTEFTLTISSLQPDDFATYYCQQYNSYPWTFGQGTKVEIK
In the case of B10, the “median fluorescence intensity, fold” value [1] is reported as 18.7 fold over isotype.

B11: antibody 477 (antibody, V domains shown)
VH: QVQLVESGGGVVQPGRSLRLSCAASGITFSSYAMHWVRQAPGKGLEWVAVISYDGSDKYHADSVKGRFAISRDNSKNTLYLQMNSLRAEDTAVYYCAKDKGIAVAGTGWIRPDPEYYFDYWGQGTLVTVSS
VL: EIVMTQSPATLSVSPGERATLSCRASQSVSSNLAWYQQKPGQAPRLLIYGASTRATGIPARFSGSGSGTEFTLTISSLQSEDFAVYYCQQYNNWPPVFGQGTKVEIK
For B11, the “median fluorescence intensity, fold” value [2] was 23.9 fold over isotype.

B12: antibody 273 (antibody, V domains shown)
VH: QVQLVQSGAEVKKPGASVKVSCKVSGYTLTELSMHWVRQAPGKGLEWMGGFDPEDGETIYAQKFQGRVTMTEDTSTDTAYMELSSLRSEDTAVYYCATAPGYYDSSAPQPINWFDPWGQGTLVTVSS
VL: QSALTQPASVSGSPGQSITISCTGTSSDVGSYNLVSWYQQHPGKAPKLMIYEVSKRPSGVSNRFSGSKSGNTASLTISGLQAEDEADYYCCSYAGSSTLVFGGGTKLTVL
In the case of B12, the “median fluorescence intensity, fold” value [1] is reported as 16 fold over isotype.

B13: antibody 496 (antibody, V domains shown)
VH: QVQLVQSGAEVKKPGASVKVSCKASGYTFTDYYIHWVRQAPGQGLEWMGWINPNSGGTNYAQKFQGRLTMTRDTSISTAYMELSRLRSDDTAVYYCARVYSMFREFIINPYYYYYGLDVWGQGTTVTVSS
VL: B12 VL with G15R, V53G, T76A, D87N
With B13 the “median fluorescence intensity, fold” value [2] was 12.6 fold over isotype.

B14: antibody 470 (antibody, V domains shown)
VH: not shown
VL: B12 VL
With B14 the “median fluorescence intensity, fold” value [2] was 7.63 fold over isotype.

B15: antibody 471 (antibody, V domains shown)
VH: QVQLVESGGGVVQPGRSLRLSCAASGFTFSSYAMHWVRQAPGKGLEWVAVISYDGSNKYYADSVKGRFTISRDNSKNTLYLQMNSLRAEDTAVYYCAKQYSPYCSGGSCYSGASDYWGQGTLVTVSS
VL: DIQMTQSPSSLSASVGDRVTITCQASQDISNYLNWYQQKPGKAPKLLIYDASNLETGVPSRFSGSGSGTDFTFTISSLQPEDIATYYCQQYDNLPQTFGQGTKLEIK
For B15, the “median fluorescence intensity, fold” value [2] was 2.75 fold over isotype.

B16: antibody 476 (antibody, V domains shown)
VH: QVQLVQSGSELKKPGASVKVSCKASGYTFTSYAMNWVRQAPGQGLEWMGWINTNTGNPTYAQGFTGRFVFSLDTSVSTAYLQISSLKAEDTGVYYCARDHELPNSSSWFGHFEYWGQGTLVTVSS
VL: SYELTQPPSVSVSPGQTARITCSGDALPKQYAYWYQQKAGQAPVLVIYKDSERRSGIPERFSGSSSGTTVTLTISGVQAEDEADYYCQSADSSGTSVVFGGGTKLTVL
For B16, the “median fluorescence intensity, fold” value [2] was 14.1 fold over isotype.

B17: antibody 266 (antibody, V domains shown)
VH: QVQLVESGGGVVQPGRSLRLSCAASGFNLSNYAMHWVRQPSGKGLEWVSLISYDGSIKYYTDSVKGRFTVSGDNSKNTLFLQMNSLRPDDSALYYCVRGGVSGPNSFDMWGQGTTVTVSS
VL: DVVMTQSPLSLPVTLGQPASISCRSSQSLVYSDGNTYVNWFQQRPGQSPRRLIYQVSIRASGVPDRFSGSGSGTDFALKISRVEAEDVGVYYCMQGTHWPVTFGQGTKVEIK
For B17, the “median fluorescence intensity, fold” value [1] was 10.8 fold over isotype.

B18: antibody 509 (antibody, V domains shown)
VH: B17 VH with N31S, P40A, P88A, M109L
VL: B17 VL with Q55K
For B18, the “median fluorescence intensity, fold” value [2] was 11.4 fold over isotype.

B19: antibody 303 (antibody, V domains shown)
VH: B17 VH with N31S, P40A, T61A, T78M, P88A, S106A, M109I
VL: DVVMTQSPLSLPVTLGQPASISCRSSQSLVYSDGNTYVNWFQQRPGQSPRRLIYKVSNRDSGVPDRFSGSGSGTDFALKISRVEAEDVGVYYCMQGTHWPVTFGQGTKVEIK
For B19, the “median fluorescence intensity, fold” value [1] was 10 fold over isotype.

B20: antibody 475 (antibody, V domains shown)
VH: QVQLVESGGGVVQPGRSLRLSCAASGFTFSSYAMHWVRQAPGKGLEWVTFISHEGSNKYYADSVKGRFTISRDNSKNTLYLQMNSLRAEDTAVYYCARTFEYSSSSATGDFDYWGQGTLVTVSS
VL: QSVLTQPPSVSGAPGQRVTISCTGSSSNIGAGYDVHWYQQLPGTAPKLLIYGNSNRPSGVPDRFSGSKSGTSASLAITGLQAEDEADYYCQSYDSSLSGVVFGGGTKLTVL
With B20 the “median fluorescence intensity, fold” value [2] was 20.2 fold over isotype.

B21: antibody 474 (antibody, V domains shown)
VH: EVQLVESGGGLVQPGGSLRLSCAASGFTFSSYWMHWVRQAPGKGLVWVSRINSDGSSTSYADSVKGRFTISRDNAKNTLYRQMNSLRAEDTAVYYCALGPLDIVGSYYYYGMDVWGQGTTVTVSS
VL: NFMLTQPHSVSESPGKTVTISCTGSSGSIASNYVQWYQQRPGSAPTTVIYEDNQRPSGVPDRFSGSIDSSSNSASLTISGLKTEDEADYYCQSYDSSNQDVVFGGGTKLTVL
B21 was tested, and the “median fluorescence intensity, fold” value [2] was 1.05 fold over isotype.

B22: antibody 284 (antibody, V domains shown)
VH: QVTLRESGPALVKPTQTLTLTCTFSGFSLSTSGMCVSWIRQPPGKALEWLALIDWDDDKYYSTSLKTRLTISKDTSKNQVVLTMTNMDPVDTATYYCARTSGYSSSWPSFDYWGQGTLVTVSS
VL: not shown
For B22, the “median fluorescence intensity, fold” value [1] was 22 fold over isotype.

B23: antibody 281 (antibody, V domains shown)
VH: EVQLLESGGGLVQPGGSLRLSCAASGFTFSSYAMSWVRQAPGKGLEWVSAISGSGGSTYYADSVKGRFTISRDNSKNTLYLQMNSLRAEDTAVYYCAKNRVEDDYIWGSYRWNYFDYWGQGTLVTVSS
VL: QSALTQPASVSGSPGQSITISCTGTSSDVGSYNLVSWYQQHPGKAPKLMIYEVSKRPSGVSNRFSGSKSGNTASLTISGLQAEDEADYYCCSYAGSSTHVVFGGGTKLTVL
In the case of B23, the “median fluorescence intensity, fold” value [1] is reported as 20.3 fold over isotype.
